US11945881B2, “Neoantigens expressed in ovarian cancer and their uses” (Janssen Biotech, Inc., priority 2020, dated 2024)

Assays:
CD8+ T cells = assay: exogenous autologous normal donor restimulation assay, TNFα/IFNγ double positive CD8+ T cells by flow cytometry; assay type: cell-based, human; settings: for Fold change (CD8+) vs. DMSO: maximum CD8+ T-cell response (TNFα and IFNγ); for Fold change (CD8+) vs. DMSO / Frequency (TNFα + IFNγ + CD8 T cells): donor independent, peptide pool 10 μg/mL, healthy donors; for Frequency (TNFα + IFNγ + CD8 T cells): maximum CD8+ T-cell response; for Immunogenic (yes/no): positive if CD8+ and/or CD4+ double positive TNFα/IFNγ frequency >=3-fold over DMSO and at least 0.01%
CD4+ T cells = assay: exogenous autologous normal donor restimulation assay, TNFα/IFNγ double positive CD4+ T cells by flow cytometry; assay type: cell-based, human; settings: donor independent, peptide pool 10 μg/mL, healthy donors; for Fold change (CD4+) vs. DMSO: maximum CD4+ T-cell response (TNFα and IFNγ); for Frequency (TNFα + IFNγ + CD4 T cells): maximum CD4+ T-cell response

Molecule	Fold change (CD8+) vs. DMSO (CD8+ T cells) [fold]	Frequency (TNFα + IFNγ + CD8 T cells) (CD8+ T cells) [%]	Immunogenic (yes/no) (CD8+ T cells)	Fold change (CD4+) vs. DMSO (CD4+ T cells) [fold]	Frequency (TNFα + IFNγ + CD4 T cells) (CD4+ T cells) [%]
YCKNDFFRSLPCHLL [AS16, neoantigen, alternative splicing of LHX1]	2.88	0.062	Yes	5.43	0.011
YGNDQWLQMRKWRHRE [FUS13, neoantigen, gene fusion MFGE8->HAPLN3]	5.12	0.11	yes	3.35	0.12
RDLQCPKKTQTPQAQSRLESERKKNTLTWLVPTPWDWRQWSTAPSRGLVWPPPPVDYELWKSS (neoantigen, alternative splicing of LRRC75B) RDLQCPKKTQTPQAQSRLESERKKNTLTWLVPTPWDWRQWSTAPSRGLVWPPPPVDYELWKSS	143.98	1.28	Yes	10.84	0.047
LKQDVRSGGPGARQLRGGLLRQAAPPGRRTRPFPHRARLHTALPTARLPGGPAAASRPAFRAAPRESGASVPGPSASPG (neoantigen, alternative splicing of IL17RC) LKQDVRSGGPGARQLRGGLLRQAAPPGRRTRPFPHRARLHTALPTARLPGGPAAASRPAFRAAPRESGASVPGPSASPG	25.75	0.36	Yes	10.73	0.12
HQYIVVQDIHTETQHSALGAQPADSIPPFLQHTLQHLACPSLELPGNEQARREKRRRDDAFSDSL (neoantigen, alternative splicing of SRGAP3) HQYIVVQDIHTETQHSALGAQPADSIPPFLQHTLQHLACPSLELPGNEQARREKRRRDDAFSDSL	14.89	0.16	Yes	12.03	0.078
HFVRSQDKGMVWTPEPSALPRTPRRHPGLSLCSQWGGLRVGPPAARPGWSLAHVLRVTLLQFHPNPGKETQKKQRCPKEDPSRIWRA (neoantigen, alternative splicing of RUFY4) HFVRSQDKGMVWTPEPSALPRTPRRHPGLSLCSQWGGLRVGPPAARPGWSLAHVLRVTLLQFHPNPGKETQKKQRCPKEDPSRIWRA	69.96	1.87	Yes	279.88	0.28
ARLRELRQCGGGRGKRGQGWGVRDETITGRPAVLGSPFLSPALAPPSRLMGDLWDGQSAGWSPGSPASPFCGGW (neoantigen, alternative splicing of HSF4) ARLRELRQCGGGRGKRGQGWGVRDETITGRPAVLGSPFLSPALAPPSRLMGDLWDGQSAGWSPGSPASPFCGGW	66.2	0.62	Yes	6.63	0.043
